Assay results from publication PMC4609290.

Target: H3(15-34) peptide (UniProt P68431)
Assay: ITC

AF10PZP (as used for ITC) (from UniProt P55197-1 1-208) (domain or fragment)
Kd: 5 µM
